The record followed here is patent publication US20160151452A1.

Assay [1] concerns the target EphB2-Fc. Briefly: SPR competition on immobilised EphB2-Fc; competitor ephrinB2-Fc 246 nM preincubated with 0-1020 nM GST-Azu 88-113.
Assay [2] concerns the target EphB2-Fc. Briefly: SPR competition on immobilised EphB2-Fc; competitor ephrinB2-Fc 246 nM.
Assay [3] has as its target EphB2 transiently expressed in DU145 cells. The experiment in a line: cell-based or functional assay.
In assay [4] the target is EphB2-Fc. Briefly: SPR titration (0.05-100 nM) on immobilised EphB2-Fc, Langmuir 1:1 fit.
The target in assay [5] is EphB2-Fc. The experiment in a line: SPR competition on immobilised EphB2-Fc; competitor ephrinB2-Fc 246 nM preincubated with 0-1020 nM azurin.
For assay [6], the target named is EphB2-Fc. The experiment in a line: SPR, azurin immobilised on CM5 chip, 100 nM Eph-Fc injected.
For a further assay, the target named is EphA6-Fc. Described as above.
In assay [7] the target is EphB2-Fc. Briefly: SPR, 100 nM analyte over immobilised EphB2-Fc. (SPR reads the build-up and loss of mass on a sensor chip optically.)
In assay [8] the target is EphB2-Fc. Briefly: SPR titration on immobilised EphB2-Fc, Langmuir 1:1 fit.

Sequence of GST-Azu 88-113 (P08515 1-218, tags or fused parts left off): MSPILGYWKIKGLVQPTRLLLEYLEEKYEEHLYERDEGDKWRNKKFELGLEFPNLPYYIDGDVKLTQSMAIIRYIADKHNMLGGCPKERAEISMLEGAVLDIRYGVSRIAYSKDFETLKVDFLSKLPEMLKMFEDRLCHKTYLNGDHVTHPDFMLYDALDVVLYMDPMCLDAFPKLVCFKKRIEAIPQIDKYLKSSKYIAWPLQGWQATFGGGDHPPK
Sequence of ephrinB2-Fc (Fc fusion) (P52800 29-232): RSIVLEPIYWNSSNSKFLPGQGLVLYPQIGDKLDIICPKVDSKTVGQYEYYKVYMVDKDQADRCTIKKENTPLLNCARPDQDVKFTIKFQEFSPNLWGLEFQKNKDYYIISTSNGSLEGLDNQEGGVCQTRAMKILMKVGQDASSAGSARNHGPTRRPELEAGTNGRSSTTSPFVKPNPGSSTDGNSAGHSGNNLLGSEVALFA
Sequence of EphB2-Fc (P54763 19-543): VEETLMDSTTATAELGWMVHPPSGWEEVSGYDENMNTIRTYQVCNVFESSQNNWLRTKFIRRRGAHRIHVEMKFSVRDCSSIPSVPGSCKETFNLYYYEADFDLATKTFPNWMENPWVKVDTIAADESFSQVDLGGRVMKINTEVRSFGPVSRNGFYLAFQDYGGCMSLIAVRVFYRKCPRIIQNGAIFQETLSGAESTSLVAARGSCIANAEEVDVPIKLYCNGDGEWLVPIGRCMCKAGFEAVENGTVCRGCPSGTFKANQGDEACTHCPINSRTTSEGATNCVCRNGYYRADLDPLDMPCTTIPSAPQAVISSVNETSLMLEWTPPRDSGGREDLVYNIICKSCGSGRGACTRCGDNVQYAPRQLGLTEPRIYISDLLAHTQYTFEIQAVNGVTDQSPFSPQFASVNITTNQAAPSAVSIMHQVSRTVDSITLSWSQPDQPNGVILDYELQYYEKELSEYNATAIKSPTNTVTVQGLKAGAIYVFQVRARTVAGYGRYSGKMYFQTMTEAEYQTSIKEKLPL
Sequence of azurin from Pseudomonas aeruginosa (P00282 21-148 limits assumed): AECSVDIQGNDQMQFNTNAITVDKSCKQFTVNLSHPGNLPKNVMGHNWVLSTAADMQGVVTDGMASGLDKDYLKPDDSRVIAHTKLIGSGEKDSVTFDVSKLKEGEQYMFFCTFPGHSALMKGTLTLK
Sequence of glutathione S-transferase (GST) (P08515 whole entry): as the sequence (P08515 1-218, tags or fused parts left off) above
Sequence of GST-Azu 36-89 (P08515 1-218, tags or fused parts left off): as above
Sequence of EphA6-Fc (Q9UF33 whole entry): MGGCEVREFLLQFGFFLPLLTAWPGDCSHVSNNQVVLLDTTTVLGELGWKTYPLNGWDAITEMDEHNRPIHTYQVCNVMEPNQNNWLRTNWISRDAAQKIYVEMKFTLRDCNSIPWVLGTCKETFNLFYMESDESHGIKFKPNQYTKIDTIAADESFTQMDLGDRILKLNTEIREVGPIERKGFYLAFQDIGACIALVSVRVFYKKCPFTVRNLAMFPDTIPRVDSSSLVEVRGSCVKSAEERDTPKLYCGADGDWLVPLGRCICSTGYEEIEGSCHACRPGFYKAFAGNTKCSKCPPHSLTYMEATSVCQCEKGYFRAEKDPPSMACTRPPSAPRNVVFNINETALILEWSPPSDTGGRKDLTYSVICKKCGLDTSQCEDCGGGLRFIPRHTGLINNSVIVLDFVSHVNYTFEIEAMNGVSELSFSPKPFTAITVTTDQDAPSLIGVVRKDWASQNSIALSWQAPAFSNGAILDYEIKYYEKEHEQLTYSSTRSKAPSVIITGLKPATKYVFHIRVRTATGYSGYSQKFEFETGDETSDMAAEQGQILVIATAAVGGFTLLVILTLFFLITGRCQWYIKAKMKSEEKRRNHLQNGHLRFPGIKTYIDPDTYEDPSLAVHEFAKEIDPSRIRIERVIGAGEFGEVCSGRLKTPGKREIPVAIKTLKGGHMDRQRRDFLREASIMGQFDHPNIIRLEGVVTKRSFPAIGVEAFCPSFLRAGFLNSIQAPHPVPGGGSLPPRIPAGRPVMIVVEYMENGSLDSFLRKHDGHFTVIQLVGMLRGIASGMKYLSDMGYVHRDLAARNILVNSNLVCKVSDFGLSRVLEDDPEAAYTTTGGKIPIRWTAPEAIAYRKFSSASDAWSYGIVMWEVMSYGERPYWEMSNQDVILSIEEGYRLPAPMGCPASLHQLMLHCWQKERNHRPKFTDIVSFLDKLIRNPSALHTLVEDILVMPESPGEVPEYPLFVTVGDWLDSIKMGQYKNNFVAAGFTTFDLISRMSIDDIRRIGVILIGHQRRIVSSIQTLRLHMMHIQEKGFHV

The substance “GST-Azu 88-113 (from UniProt P08515 1-218)” came in with a reduction of total protein binding to the surface with EphB2-Fc [1] of less than 60%. The same substance displayed a level at which the inhibition levels off with EphB2-Fc [2] of 40 to 50%. Also, in assay [3], the decrease in phosphotyrosine level on cotreatment with ephrinB2 (lane 11 against lane 8) turned out to be 21%, the decrease in phosphotyrosine level on cotreatment with ephrinB2 (lane 12 against lane 9) amounted to 42% and the decrease in phosphotyrosine level on cotreatment with ephrinB2 (lane 13 against lane 10) was determined as 45%.
For “azurin from Pseudomonas aeruginosa (from UniProt P00282 21-148)”, the Kd (as a rule, the free concentration of one partner at which half of the binding sites on the other are occupied at equilibrium, for simple one-to-one binding) with EphB2-Fc [4] amounted to 6 nM. In addition, in the assay with EphB2-Fc [2], the level at which the inhibition levels off fell in the range of 40 to 50%. Further, the reduction of total protein binding to the surface with EphB2-Fc [5] was less than 60%. For the same substance, in [3], the lower level of tyrosine phosphorylation with azurin plus ephrinB2 than with ephrinB2 alone was 30 to 40%. Further, the results for the Req (saturating resonance) with EphB2-Fc [6] and with EphA6-Fc were 1250 RU and 1200 RU, respectively. The substance further gave a Req in RU with EphB2-Fc [7] of 427 RU.
Consider “glutathione S-transferase (GST) (from UniProt P08515 1-218) (enzyme)”, for which the Kd with EphB2-Fc [8] was more than 160 nM. Besides, in the assay with EphB2-Fc [7], the Req in RU came to 14 RU.
Regarding ephrinB2-Fc (Fc fusion), the Kd in the assay with EphB2-Fc [4] and with EphB2-Fc [8] was 30 nM throughout. For the same substance, the Req in RU in the assay with EphB2-Fc [7] came to 159 RU.
The substance “GST-Azu 36-89 (from UniProt P08515 1-218)” displayed a Req in RU with EphB2-Fc [7] of 57 RU.
